Assay results reported in article doi:10.1101/2024.03.15.584944 (bioRxiv, 2024).

B1: rMAP-1 (natural protein, UniProt P48740-3 20-380, looked up)
chain: HTVELNNMFGQIQSPGYPDSYPSDSEVTWNITVPDGFRIKLYFMHFNLESSYLCEYDYVKVETEDQVLATFCGRETTDTEQTPGQEVVLSPGSFMSITFRSDFSNEERFTGFDAHYMAVDVDECKEREDEELSCDHYCHNYIGGYYCSCRFGYILHTDNRTCRVECSDNLFTQRTGVITSPDFPNPYPKSSECLYTIELEEGFMVNLQFEDIFDIEDHPEVPCPYDYIKIKVGPKVLGPFCGEKAPEPISTQSHSVLILFHSDNSGENRGWRLSYRAAGNECPELQPPVHGKIEPSQAKYFFKDQVLVSCDTGYKVLKDNVEMDTFQIECLKDGTWSNKIPTCKKNEIDLESELKSEQVTE
B2: rMASP-1 (enzyme, UniProt P48740 20-699, looked up)
chain: HTVELNNMFGQIQSPGYPDSYPSDSEVTWNITVPDGFRIKLYFMHFNLESSYLCEYDYVKVETEDQVLATFCGRETTDTEQTPGQEVVLSPGSFMSITFRSDFSNEERFTGFDAHYMAVDVDECKEREDEELSCDHYCHNYIGGYYCSCRFGYILHTDNRTCRVECSDNLFTQRTGVITSPDFPNPYPKSSECLYTIELEEGFMVNLQFEDIFDIEDHPEVPCPYDYIKIKVGPKVLGPFCGEKAPEPISTQSHSVLILFHSDNSGENRGWRLSYRAAGNECPELQPPVHGKIEPSQAKYFFKDQVLVSCDTGYKVLKDNVEMDTFQIECLKDGTWSNKIPTCKIVDCRAPGELEHGLITFSTRNNLTTYKSEIKYSCQEPYYKMLNNNTGIYTCSAQGVWMNKVLGRSLPTCLPVCGLPKFSRKLMARIFNGRPAQKGTTPWIAMLSHLNGQPFCGGSLLGSSWIVTAAHCLHQSLDPEDPTLRDSDLLSPSDFKIILGKHWRLRSDENEQHLGVKHTTLHPQYDPNTFENDVALVELLESPVLNAFVMPICLPEGPQQEGAMVIVSGWGKQFLQRFPETLMEIEIPIVDHSTCQKAYAPLKKKVTRDMICAGEKEGGKDACAGDSGGPMVTLNRERGQWYLVGTVSWGDDCGKKDRYGVYSYIHHNKDWIQRVTGVRN
B3: Zymogen rMASP-3 (enzyme, human, UniProt P48740-2 20-728, looked up)
chain: HTVELNNMFGQIQSPGYPDSYPSDSEVTWNITVPDGFRIKLYFMHFNLESSYLCEYDYVKVETEDQVLATFCGRETTDTEQTPGQEVVLSPGSFMSITFRSDFSNEERFTGFDAHYMAVDVDECKEREDEELSCDHYCHNYIGGYYCSCRFGYILHTDNRTCRVECSDNLFTQRTGVITSPDFPNPYPKSSECLYTIELEEGFMVNLQFEDIFDIEDHPEVPCPYDYIKIKVGPKVLGPFCGEKAPEPISTQSHSVLILFHSDNSGENRGWRLSYRAAGNECPELQPPVHGKIEPSQAKYFFKDQVLVSCDTGYKVLKDNVEMDTFQIECLKDGTWSNKIPTCKIVDCRAPGELEHGLITFSTRNNLTTYKSEIKYSCQEPYYKMLNNNTGIYTCSAQGVWMNKVLGRSLPTCLPECGQPSRSLPSLVKRIIGGRNAEPGLFPWQALIVVEDTSRVPNDKWFGSGALLSASWILTAAHVLRSQRRDTTVIPVSKEHVTVYLGLHDVRDKSGAVNSSAARVVLHPDFNIQNYNHDIALVQLQEPVPLGPHVMPVCLPRLEPEGPAPHMLGLVAGWGISNPNVTVDEIISSGTRTLSDVLQYVKLPVVPHAECKTSYESRSGNYSVTENMFCAGYYEGGKDTCLGDSGGAFVIFDDLSQRWVVQGLVSWGGPEECGSKQVYGVYTKVSNYVDWVWEQMGLPQSVVEPQVER
modifications: RED-tris-NTA dye on the His tag (in the MST only)

Experiments:
[1] = molecular target: T1, C1q (human (endogenous in normal human serum), UniProt P02745 23-245; P02746 28-253; P02747 29-245); assay: ELISA
[2] = molecular target: T1, C1q; assay: MST

T1 sequence (P02745 23-245, chain 1 of 3): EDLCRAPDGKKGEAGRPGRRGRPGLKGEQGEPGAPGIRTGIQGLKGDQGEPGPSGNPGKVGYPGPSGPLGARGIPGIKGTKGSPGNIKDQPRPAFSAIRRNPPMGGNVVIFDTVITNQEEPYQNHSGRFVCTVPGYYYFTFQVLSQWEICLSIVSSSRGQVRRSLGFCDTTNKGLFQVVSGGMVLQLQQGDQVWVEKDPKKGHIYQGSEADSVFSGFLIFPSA
T1 sequence (P02746 28-253, chain 2 of 3): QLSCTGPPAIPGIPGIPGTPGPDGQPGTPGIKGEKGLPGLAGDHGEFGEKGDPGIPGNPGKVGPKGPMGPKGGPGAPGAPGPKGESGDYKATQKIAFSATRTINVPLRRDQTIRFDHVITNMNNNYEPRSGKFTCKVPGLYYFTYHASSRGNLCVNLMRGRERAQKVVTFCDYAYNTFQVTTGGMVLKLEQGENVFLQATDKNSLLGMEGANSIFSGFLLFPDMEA
T1 sequence (P02747 29-245, chain 3 of 3): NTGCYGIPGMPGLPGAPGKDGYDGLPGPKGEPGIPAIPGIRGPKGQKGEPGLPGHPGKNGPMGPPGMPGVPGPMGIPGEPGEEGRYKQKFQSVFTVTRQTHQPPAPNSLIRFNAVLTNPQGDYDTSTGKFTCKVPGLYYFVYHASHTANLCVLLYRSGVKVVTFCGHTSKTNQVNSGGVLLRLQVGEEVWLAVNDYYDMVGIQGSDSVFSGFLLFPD

| Binder | binding result [1] | Kd [2] [nM] |
| --- | --- | --- |
| B1 | binds | – |
| B2 | binds | – |
| B3 | – | 69.6 |
